Assay: yeast display, Sf9 membrane polyspecificity reagent, FACS + sequencing; frameworks hold sequencing errors
Procedure, shortened: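 Genes from sorted yeast were amplified by colony PCR, read by MiSeq 2 × 250 sequencing and filtered on CDR length. These cells carried a synthetic nanobody library in Saccharomyces cerevisiae BJ5465 and were sorted by FACS into low and high (top ~1%) gates on anti-HA and streptavidin fluorescence. Polyreactivity is labelled according to the gate of origin.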

QVQLVESGGGLVQAGGSLRLSCAASGRIFGYYTMGWYRQAPGKEREFVAAISYRGGSTYYADSVKGRFTISRDNAKNTVYLQKNSLKPEDTAVYYCNARKSYYTVRSYDSWGQGTQVTVSS
polyreactivity (PSR sort gate): high polyreactivity

QVQLVESGGGLVQAGGSLRLSCAASGRIFGYYTMGWYRQAPGKERELVATITGGGGSTYYADSVKGRFTISRDNAKNTVYLQMNSLKPEDTAVYYCAKRNWKYVSHRHSYYETYDYWGQGTQVTVSS
polyreactivity (PSR sort gate): high polyreactivity

QVQLVESGGGLVQAGGSLRLSCAASGRIFGYYVMGWYRQAPGKERELVAAINYDGGSTYYADSVKGRFTISRDNAKNTVYLQMNSLKPEDTAVYYCAAAIGNSEYGWRYDYWGQGTQVTVSS
polyreactivity (PSR sort gate): low polyreactivity

QVQLVESGGGLVQAGGSLRLSCAASGRIFGYYVMGWYRQAPGQERELVARIRSGGNTYYADSVKGRFTISRDNAKNTVYLQMNSLKPEDTAVYYCNADPRTGWYKYDYWGQGTQVTVSS
polyreactivity (PSR sort gate): high polyreactivity

QVQLVESGGGLVQAGGSLRLSCAASGRIFHGYAMGWYRQAPGKERELVAVIRSGVNTNYADSVKGRFTISRDNAKNTVYLQMNSLKPEDTAVYYCAVDYTPEDWGDDYWGQGTQVTVSS
polyreactivity (PSR sort gate): low polyreactivity

QVQLVESGGGLVQAGGSLRLSCAASGRIFHKYTMGRYRQAPGKERELVAAISFSTGNTFYADSVKGRFTISRDTANNTVFLQMNSLKPEDTAVYYCATDVLYPDYDYWGQGTQVTVSS
polyreactivity (PSR sort gate): low polyreactivity

QVQLVESGGGLVQAGGSLRLSCAASGRIFHRYAMGWDRQAPGKERELVAAINWRTGNTYYADSVKGRFTISRDNAKNTVYLQMNSLTPEDTAVYYCNARYRSDYWGIQYDYWGQGTQVTVSS
polyreactivity (PSR sort gate): high polyreactivity

QVQLVESGGGLVQAGGSLRLSCAASGRIFHRYAMGWYRQAPGKERELVAAITRGGSTNYADSVKGRFTISRDNAKNTVYLQMNSLKPEDTAVYYCNADVYAWYLSHRYDYWGQGTQVTVSS
polyreactivity (PSR sort gate): low polyreactivity

QVQLVESGGGLVQAGGSLRLSCAASGRIFHSYAMGWYRQAPGKERELVAAISSGGNTYYADSVKGRFTISRDNAKNTVYLQMNSLKPEDTAVYDCARDWDFLYDGFHSDSYEYWGQGTQVTVSS
polyreactivity (PSR sort gate): low polyreactivity

QVQLVESGGGLVQAGGSLRLSCAASGRIFHSYAMGWYRQAPGKERELVASITWDSTSTNYADSVKGRFTISRDNAKNTVYLQMNSLKPEDTAVYYCNADESRYGFGYDYWGQGTQVTVSS
polyreactivity (PSR sort gate): low polyreactivity

QVQLVESGGGLVQAGGSLRLSCAASGRIFHVNAMGWYRQAPGKEMDLVAAISTSGGRTYYADSVKGRFTISRDNAKNTVYLQMNSLKPEDTAVYYCAAVSRAPGLRYDYWGQGTQVTVSS
polyreactivity (PSR sort gate): high polyreactivity

QVQLVESGGGLVQAGGSLRLSCAASGRIFHWYAMGWYRQAPGKERELVAAIRWTGGSTYYADSVKGRFTISRDNAKNTVYLQMNSLKREDTAVYYCAAKGYTGIFYEMDYWGQGTQVTVSS
polyreactivity (PSR sort gate): low polyreactivity

QVQLVESGGGLVQAGGSLRLSCAASGRIFHYNTMGWYRQAPGKERELVAAITSSGGSTYYADSVKGRFTISRDNAKNTVYLQMNSLKPEDTAVYYCNAVFYRYGYKVDYWGQGTQVTVSS
polyreactivity (PSR sort gate): high polyreactivity

QVQLVESGGGLVQAGGSLRLSCAASGRIFHYYAMGWYIKAPGKERELVAAITSSGGSTYYADSVKGRFTISRDNAKNTVYLKMNSLKPEDTAVYYCAARGRRVSAYYYWGQGTQVTVSS
polyreactivity (PSR sort gate): high polyreactivity

QVQLVESGGGLVQAGGSLRLSCAASGRIFHYYAMGWYRQAPGKERELVAAISYSGTRTYYADSVKGRFTISRDNAKNTVYLQMNSLNPEDTAVYYCNAARSTNFDYWGQGTQVTVSS
polyreactivity (PSR sort gate): high polyreactivity

QVQLVESGGGLVQAGGSLRLSCAASGRIFHYYAMGWYRQAPGKERELVADSSWSGGRTYYADSVKGRFTISRDNAKNTVYLQMNSLKPEDTAVYYCAAGHSYRPYYYYGEYDYWGQGTQVTVSS
polyreactivity (PSR sort gate): high polyreactivity

QVQLVESGGGLVQAGGSLRLSCAASGRIFIDYAMGWYRQAPGKERELVATITSSGGSTYYADSVKGRFTISRDNAKNTVYLQMNSLKPEDTAVYYCNKEGSYDYDFWGQGTQVTVSS
polyreactivity (PSR sort gate): low polyreactivity

QVQLVESGGGLVQAGGSLRLSCAASGRIFIGNAMGWYRQAPGKERELVAAISRRGGTTYYADSVKGRFTISRDNAKNTVYLQMNSLKPEDTAVYYCNKEWTYEHGYWGQGTQVTVSS
polyreactivity (PSR sort gate): high polyreactivity

QVQLVESGGGLVQAGGSLRLSCAASGRIFIGNAMGWYRQAPGKERELVAAITQSGGSTYYADSVKGRFTISRDNAKNTVYLQMNSLKPEDTAVYYCSKALRRPRSGGNPGQAYGYWGQGTQVTVSS
polyreactivity (PSR sort gate): low polyreactivity

QVQLVESGGGLVQAGGSLRLSCAASGRIFIGYAMGWYRQAPGKERELVAAISRSGGSTYYADSVKGRFTISRDNAKYTVYLQMNSLKPEDTAVYYCAASPPFGYYYWGQGTQVTVSS
polyreactivity (PSR sort gate): high polyreactivity

QVQLVESGGGLVQAGGSLRLSCAASGRIFIGYAMGWYRQAPGKERELVAAITSGGGTYYADSVKGRFTISRDNAKNTVYLQMNSLKPEDTAVYYCAAAQRYPIKYYYWGQGTQVTVSS
polyreactivity (PSR sort gate): low polyreactivity

QVQLVESGGGLVQAGGSLRLSCAASGRIFIIYAMGWYRQAPGTEREFVAAITSSGGSTYYADSVKGRFTISRDNAKNTVYLQMNSLKPEDTAVYYSAADSTEYTGDASYIGYDYWGQGTQVTVSS
polyreactivity (PSR sort gate): high polyreactivity

QVQLVESGGGLVQAGGSLRLSCAASGRIFIKNAMGWNRQAPGKERELVAAISDSGDSTYYADSVKGRFTISRDNAKNSVYLQMNSLKPEDTAVYYCAADGADHRSEMYYWGQGTQVTVSS
polyreactivity (PSR sort gate): low polyreactivity

QVQLVESGGGLVQAGGSLRLSCAASGRIFILNTMGWYRQAPGKERELVAGISYSGSTYYADSVKGRFTISRDNAKNTVYLQMNSMKPEDTAVYYCAADYDAAWYNDGYYYWGQGTQVTVSS
polyreactivity (PSR sort gate): low polyreactivity

QVQLVESGGGLVQAGGSLRLSCAASGRIFIPYAMAWYRQAPGNERELVAAISSSGGSTYYADSVKGRFTISRDNAKNTVYLQMNSLKPEDTAVYYCSALLYWWYAYETYSSLFEYDYWGQGTLVTVSS
polyreactivity (PSR sort gate): low polyreactivity

QVQLVESGGGLVQAGGSLRLSCAASGRIFIRNAMGWYRQAPGKEREFVAAISYGGSTYYADSVKGRFTISRDNAKNTVYLQMNSLKPEDTAVYYCAARVLPYLTPRRQMYYWGQGTQVTVSS
polyreactivity (PSR sort gate): low polyreactivity

QVQLVESGGGLVQAGGSLRLSCAASGRIFIRNAMGWYRQAPGKERELVAAITSDGGSTDYADSVKGRFTISRDNAKNTVYLQMNSLIPEDTAVYYCAATGSGYDYWGQGTQVTVSS
polyreactivity (PSR sort gate): low polyreactivity

QVQLVESGGGLVQAGGSLRLSCAASGRIFIRYAMGSYRQAPGKERELVAAITYSGGRTYYADSVKGRFTISRDNAKNTVYLQMNSLKPEDTAVYYCAADAPYGEDYWGQGTQVTVSS
polyreactivity (PSR sort gate): high polyreactivity

QVQLVESGGGLVQAGGSLRLSCAASGRIFITNTMGWSRPAPGKERELVAAISRTGGSTYYADSVKGRFTISRDNAKNTVYLQMNSLKPEDTAVYYCAKRYYGSPQLRYYYWGQGTQVTVSS
polyreactivity (PSR sort gate): high polyreactivity

QVQLVESGGGLVQAGGSLRLSCAASGRIFIVNAMGWYRQAPGKERELVAAIRTGGSNTYYADSVKGRFTISRDNAKNTVSLQMTSLKPEDTAVYYCNARSTRRINYWGQGTQVTVSS
polyreactivity (PSR sort gate): high polyreactivity

QVQLVESGGGLVQAGGSLRLSCAASGRIFIYNAMGWYRQAPGKERELVAAISVSGGRTYYADSVKGRFTISRDNAKNTVYLQMNSLKPEDTAVYYCNKVRVGSLRGYWGQGTQVTVSS
polyreactivity (PSR sort gate): high polyreactivity

QVQLVESGGGLVQAGGSLRLSCAASGRIFIYNAMGWYRQAPGKETELVAAISSGGDTYYADSVKGRFTISRDNAKNTVYLQMNSLKPEDTAVYYCAARVYRYRGYDSWGQGTQVTVSS
polyreactivity (PSR sort gate): high polyreactivity

From the nanobody polyreactivity screen of Harvey et al. (2022)
